Reference: patent US20250051458A1, “Methods for Treating Neurodegeneration Targeting IGF1/IGF1R” (The Schepens Eye Research Institute, Inc., priority 2021, published 2025)

Columns and labels:
BV2 microglia = test: Western blot of PI3K phosphorylation in BV2 microglia; format: cell-based, mouse
Experimental: For WB, mouse BV2 cell line was used in this study. It was purchased from ATCC (CRL-2469), and was cultured in DMEM (Thermo Fisher Scientific, Cat. No. 11885084) supplemented with 10% FBS at 37° C. with 5% C02. The medium was changed every 3 days. Cells were then seeded onto 6-well plates and stimulated with LPS (Sigma, Cat #L6529-1MG) for 6 hours and followed by IGFBPL1 (400 ng/ml, R&D system, 4130-BL) and/or IGF1 analog (10 uM, BACHEM, H-1356, Cat. No. 4018631) or NBI-31772 (10 μM, EMD Millipore, Cat. No. 479830). Cells were harvested 48 hrs for following western blotting.
WB was performed as previously noted^29. Cell or tissue samples were sonicated in a cold RIPA buffer supplemented with a 1:100 FAST protease inhibitor (S8830, Sigma-Aldrich, St Louis, MO, USA). […] The total Protein concentration of resulting supernatants was determined using the Qubit 4 Fluorometer (Thermo Fisher Scientific, Waltham, MA, USA). […] Signals were developed with ECL using a Super Signal West Pico kit (Thermo Fisher Scientific, Waltham, MA, USA) and detected with iBright CL 1500 (Thermo Fisher Scientific, Waltham, MA, USA). […] All the quantification results were averaged from three protein blots and expressed as the mean ratio of the values (target protein/housekeeping protein)±standard deviation (SD). […]

[1] = tested on: microbead-induced glaucoma mice; format: in vivo, mouse
Experimental: For whole mounted retina staining, mouse eyeballs were fixed in 4% paraformaldehyde for 3 hours at room temperature or overnight at 4° C. fridge after sacrificing mice with carbon dioxide (CO2). Then retinas were dissected out and incubated with blocking buffer (3% donkey serum+1% BSA+0.1% Triton+0.1% Tween in 1×PBS) for 1-3 h RT. Then retinas were subjected to immunolabeling by incubation with primary antibody (Table 1) overnight at 4° C. After washing three times by washing buffer (0.1% Triton-100 in PBS), retinas were incubated with secondary antibody at room temperature for 2 hrs. After rinsing retina three times in washing buffer for 5-10 min on shaker, mount slide with Fluoroshield Mounting Medium with DAPI (Abcam, Cat. No. ab104139). Visualize under microscope (Leica, SP8). Secondary antibody: Streptavidin, Alexa Fluor 546 conjugate (1:1000, S11225, Invitrogen), Streptavidin, Alexa Fluor 488 conjugate (1:1000, S11223, Invitrogen), Cy2 Donkey Anti-rabbit (1:1000, 711-225-152, Jackson ImmunoResearch), Cy3 Donkey Anti-mouse (1:1000, 715-165-150, Jackson ImmunoResearch), Cy3 Donkey Anti-goat (1:1000, 705-165-147, Jackson ImmunoResearch).
Total RNA was extracted from retinas of adult mice or purified retinal microglial cells using RNeasy Plus Mini kit (Qiagen, 74134) or RNeasy Micro kit (Qiagen, 74004) following manufacturer's instruction. The RNA was reversely transcribed using Takara PrimeScript™ RT Master Mix (Takara Bio, RR036A). A mixture of master mix contained cDNA, 2× Master Mix from KAPA SYBR Fast qPCR kit and […] of specific primers was used to detect specific mRNA expression level using the Mastercycler ep realplex real-time PCR system (Eppendorf, Westbury, NY). The temperature of initial denaturation was set at 95° C. for 2 mins followed by 45 cycles of 15 seconds denaturation (95° C.), 15 seconds annealing (59° C.), and 20 seconds extension (68° C.), and lastly holding at 4° C. Relative amount of specific mRNA transcript was presented in fold changes by normalization to the expression level of the housekeeping gene glyceraldehyde 3-phosphate dehydrogenase (GAPDH). Expression was analyzed using the 2−ΔΔCt method. All primers were synthesized by Integrated DNA Technologies (USA).
Elevated IOP was induced unilaterally in adult mice (10-12 weeks old) as described previously^21. Briefly, the mice were anesthetized by i.p. injection of ketamine (120 mg/kg)/xylazine (20 mg/kg) mixture using 25-gauge needle. The pupil was dilated with tropical application of 1% Tropicamide followed by proparacaine HCl (0.5%; Baush & Lomb Incorporated, Tampa, FL) to numb the eye. An entry on the corneal was generated by a 30-gauge needle, and a small air bubble was injected into anterior chamber via a glass micropipette which was connected with a Hamilton syringe. 2 μl solution of 10 μm microspheres (9.0×10^7 beads/ml sterile saline; Thermo Fisher Scientific, Cat. No. F8833) was injected into anterior chamber with care to avoid damaging the iris and the lens. The micropipette will be withdrawn slowly after delivery of microbeads. Antibiotic ointment will be applied topically on the cornea after the injection, and then leave the operated mice to recover on a warm pad and monitored every 15 minutes until awake and fully sternal.
Mice were anesthetized by isoflurane inhalation (2-4%; Webster Veterinary, Sterling, MA) delivered in 100% Oxygen with a precision Vaporizer. The IOP was measured by TonoLab tonometer (Colonial Medical Supply) before and post-MB injection. An average of 6 IOP readings will be taken as one reading. At least […] readings of IOP level will be taken per mouse eye, and the mean of 3 readings represents the IOP level of a mouse eye. Baseline level of IOP in anesthetized mice was measured before induction of elevated IOP. Then the IOP was measured twice a week after microbeads injection induced IOP elevation. The IOP was measured at the same time in the morning to minimize the circadian variation. […]

[2] = 14 days post glaucoma induction
[3] = intravitreal at day 3, 10 and 17 post IOP elevation

B1: IGFBPL1: insulin-like growth factor binding protein like protein 1; recombinant protein (R&D system, 4130-BL) (protein)
chain: LGLRDAGRRHPECSPCQQDRCPAPSPCPAPWISARDECGCCARCLGAEGASCGGPVGSRCGPGLVCASRASGTAPEGTGLCVCAQRGAVCGSDGRSYSSICALRLRARHAPRAHHGHLHKARDGPCEFAPVVLMPPRDIHNVTGTQVFLSCEVKAVPTPVITWKKVKHSPEGTEGLEELPGDHVNIAVQVRGGPSDHETTSWILINPLRKEDEGVYHCHAANAIGEAQSHGTVTVLDLNRYKSLYSSVPGDLL
Increase in PI3K phosphorylation (BV2 microglia; IGFBPL1 added 6 hr after LPS challenge): 8 fold | PI3K signaling, individual treatment (BV2 microglia; IGFBPL1 alone, no LPS): did not alter PI3K signaling | Contrast sensitivity (CS) and visual acuity (VA) by optomotor response ([1]; 4- and 8-weeks post glaucoma induction): restored CS and VA | Expression of pro-inflammatory cytokines (C1q, Tnfα, Il-1β, Il-1α) in glaucoma retina [1, 2]: remarkably reduced | Level of activated microglia markers (Iba-1, Ym-1, Nox-2, Cd163) in retina by qPCR [1, 2]: dramatically down-regulate | Reactive astrocyte number and GFAP level in retina ([1]; day 14 post glaucoma induction): significantly restored | RGC quantification compared with baseline [1, 3]: no significant difference with baseline | RGCs loss and dysfunction from glaucomatous damages [1, 3]: significantly prevented RGCs loss and dysfunction | IBA-1+ microglia activation (morphology, cell density) in retina ([1]; intravitreal at day 3 and 10, 2 wks post glaucoma-induced injury): reverse activated microglia into resting state | pSTR amplitude (ERG) compared with baseline ([1]; mouse, in vivo): no significant difference with baseline
